According to US20240059758A1 (CORAT THERAPEUTICS, published 2024):

B1: STE90-C11 (IgG) (antibody, V domains shown)
VH: QVQLVESGGGLVQPGGSLRLSCAASGLTVSSNYMSWVRQAPGKGLEWVSVIYSGGSTYYADSVKGRFTISRDDSKNTLYLQMNSLRAEDTAVYYCARDVADAFDIWGQGTMVTVSS
VL: DIVMTQSPSFLSASVGDRVTITCRASQGISSYLAWYQQKPGKAPKLLIYAASTLQSGVPSRFSGSGSGTEFTLTISSLQPEDFATYYCQQLNSYPPFTFGPGTKVDIK
B2: STE90-C11 (Fab) (Fab, V domains shown)
VH: QVQLVESGGGLVQPGGSLRLSCAASGLTVSSNYMSWVRQAPGKGLEWVSVIYSGGSTYYADSVKGRFTISRDDSKNTLYLQMNSLRAEDTAVYYCARDVADAFDIWGQGTMVTVSS
VL: DIVMTQSPSFLSASVGDRVTITCRASQGISSYLAWYQQKPGKAPKLLIYAASTLQSGVPSRFSGSGSGTEFTLTISSLQPEDFATYYCQQLNSYPPFTFGPGTKVDIK
B3: YU536-D04 (IgG) (antibody, V domains shown)
VH: QVQLVQSGGGLVQPGGSLRLSCAASGLTVSSNYMSWVRQAPGKGLEWVSVIYSGGSTYYADSVKGRFIISRDNSKNTLYLQMNSLRAEDTAVYYCARDLVVMGLDVWGKGTLVTVSS
VL: DIQLTQSPSSLSASVGDRVTITCRASQGISSYLAWYQQKPGKAPKLLIYAASTLQSGVPSRFSGSGSGTDFTLTISSLQPEDFATYYCQQLNSYPITFGQGTKLEIK
B4: YU536-D04 (Fab) (Fab, V domains shown)
VH: QVQLVQSGGGLVQPGGSLRLSCAASGLTVSSNYMSWVRQAPGKGLEWVSVIYSGGSTYYADSVKGRFIISRDNSKNTLYLQMNSLRAEDTAVYYCARDLVVMGLDVWGKGTLVTVSS
VL: DIQLTQSPSSLSASVGDRVTITCRASQGISSYLAWYQQKPGKAPKLLIYAASTLQSGVPSRFSGSGSGTDFTLTISSLQPEDFATYYCQQLNSYPITFGQGTKLEIK
B5: YU537-H11 (IgG) (antibody, V domains shown)
VH: EVQLLESGGGLIQPGGSLRLSCAASGLTVSSNYMSWVRQAPGKGLEWVSVIYSGGSTYYADSVKGRFTISRDNSKNALYLQMNSLRAEDTAVYYCARGESGSPYGMDVWGQGTLVTVSS
VL: QSVLTQPPSVSAAPGQKVTISCSGSSSNIGNNYVSWYQQLPGTAPKLLIYDTNKRPSGIPDRFSGSKSGTSATLGITGLQTGDEADYYCATWDSSLSVGVFGGGTKLTVL
B6: YU537-H11 (Fab) (Fab, V domains shown)
VH: EVQLLESGGGLIQPGGSLRLSCAASGLTVSSNYMSWVRQAPGKGLEWVSVIYSGGSTYYADSVKGRFTISRDNSKNALYLQMNSLRAEDTAVYYCARGESGSPYGMDVWGQGTLVTVSS
VL: QSVLTQPPSVSAAPGQKVTISCSGSSSNIGNNYVSWYQQLPGTAPKLLIYDTNKRPSGIPDRFSGSKSGTSATLGITGLQTGDEADYYCATWDSSLSVGVFGGGTKLTVL

How the values were obtained:
[1] = biological target: S1-subunit of the SARS-CoV-2 glycoprotein S (SARS-CoV-2, UniProt P0DTC2 16-685); test: titration ELISA, IgG on S1
[2] = biological target: receptor binding domain (RBD) of the S1-subunit of SARS-CoV-2 glycoprotein S (SARS-CoV-2, UniProt P0DTC2 319-541); test: titration ELISA, IgG on RBD
[3] = biological target: T1, SARS-CoV-2 glycoprotein S (spike) on infectious virus (SARS-CoV-2, UniProt P0DTC2 14-1273); test: cell-based or functional assay
[4] = biological target: T1, SARS-CoV-2 glycoprotein S (spike) on …; test: cell-based or functional assay; remark: listed apart in the source
S1-His [5] = biological target: T2, S1-His (SARS-CoV-2, UniProt P0DTC2 16-685); test: BLI, antibody on Protein A sensor, S1-His in solution
S1-His [6] = biological target: T2, S1-His; test: BLI, antibody on FAB2G capture sensor, S1-His in solution
[7] = biological target: RBD-mFc (Sino Biologicals) (SARS-CoV-2, UniProt P0DTC2 319-541); test: BLI, RBD-mFc on anti-mouse Fc capture sensor, Fab in solution

Binder	EC50 [1]	EC50 [2]	Neutralization [3]	Virus neutralization (24-well titration) TCID50 (IgG) [4]	Virus neutralization (96-well titration) TCID50 (IgG) [4]	Kd (S1-His [5])	Kd (S1-His [6])	Kd [7]
B1	0.3 nM	0.3 nM	0.56 nM	0.56 nM	0.91 nM	6.53 nM	1.56 nM	
B2								8.14 nM
B3		1.1 nM	0.4 nM	0.4 nM	0.2 nM	23 nM	5.49 nM	
B4								17.5 nM
B5		1.4 nM	0.47 nM	0.47 nM	0.27 nM	32.5 nM	11.7 nM	
B6								61.1 nM
